Measured values published in FireProtDB (doi:10.1021/bi982078m).
Where “and” joins values, the source holds several entries; their conditions need not be identical. Identical values can stand only once.

Details: Equus caballus, pH 6, 25 °C, Absorbance, cacodylate 0.03 M, reversible: yes

Sequence of Cytochrome c wild type, P00004 (P00004 whole entry): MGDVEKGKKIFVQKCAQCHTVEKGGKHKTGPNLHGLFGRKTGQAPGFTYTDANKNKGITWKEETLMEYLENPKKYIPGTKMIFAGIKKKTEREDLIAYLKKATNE

With Cytochrome c wild type, P00004 the denaturant m value (GdnHCl, KCl 0.1-1.0 M) was 3.31 kcal/mol/M, the “denaturant midpoint (higher = more stable)” value (GdnHCl, KCl 0.1-1.0 M) was 2.47 M and the unfolding free energy (GdnHCl, KCl 0.1-1.0 M) was 8.18 kcal/mol. The denaturant m value (Urea, KCl 0.1-1.0 M) was 1.28 kcal/mol/M, the “denaturant midpoint (higher = more stable)” value (Urea, KCl 0.1-1.0 M) was 6.26 M and the unfolding free energy (Urea, KCl 0.1-1.0 M) was 8.02 kcal/mol. For the same substance, the denaturant m value (Urea, KCl 0.1 M) was 1.25 kcal/mol/M and 1.37 kcal/mol/M.
